In patent US20260250338A1:

Molecular target: CD16aF allelic variant of CD16a expressed on Jurkat cells (human) (UniProt P08637)
Assay: flow cytometry on Jurkat cells expressing CD16aF, conditions as in Example 2

Sequence of CD16aF allelic variant of CD16a expressed on Jurkat cells (human) (P08637 17-254, change not shown): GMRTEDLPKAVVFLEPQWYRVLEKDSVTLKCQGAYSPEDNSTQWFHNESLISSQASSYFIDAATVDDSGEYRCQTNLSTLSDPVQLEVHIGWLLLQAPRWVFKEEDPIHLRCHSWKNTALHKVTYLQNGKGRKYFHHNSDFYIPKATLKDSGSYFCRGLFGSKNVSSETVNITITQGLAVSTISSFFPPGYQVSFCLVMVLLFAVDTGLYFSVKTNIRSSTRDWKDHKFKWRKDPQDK

EC50: 23.2 nM
B1: Construct 25 (SEQ ID NO: 94), CD117 × CD16a, CD117 binder SEQ ID NO: 84 N-terminal of DARPin #7 (designed binder)
chain: MRGSHHHHHHGSDLGQKLLKAAQYGQDDEVRILLAAGADVNAKDWAGKTPLHVAAEAGHLEIVEVLLKAGADVNAKDKAGETPLHLAAEQGHLEIVEVLLKAGADVNAQDEWGQTPADLAAYYGLEDIAEVLQKAAGSPTPTPTTPTPTPTTPTPTPTGSDLGQKLLRAAKKGQDDEVRELLKAGADVNAKDEQGWTPLHNAAWKGHLEIVEVLLKAGADVNAKDVFDWTPLHVAAHFGHLEIVEVLLKAGADVNAQDRAGETPADLAAQAGHEDIAEVLQKAA
